Test results: the supplement of paper PMC9732359
± gives the uncertainty stated by the source.

Assay: protein stability index of a GFP-peptide fusion (yeast GPS) (PSI 1-4); higher = more stable; sorted into four equal gates, so the index is relative within each strain
Procedure, shortened: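 The protein stability index combines read frequencies across sorting gates, each weighted by its gate number and then summed. To obtain those frequencies, a pooled yeast library of GFP fusions to tiled 17-residue yeast protein peptides, on a plasmid also expressing Cherry, was grown to mid-log phase in leucine-free medium. The cells were sorted into four equal gates by GFP/Cherry ratio before plasmid amplification by PCR and Illumina sequencing.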

Row | Sequence | protein stability index (doa10∆) | protein stability index (pdr5∆) | protein stability index (san1∆) | protein stability index (ubr1∆)
1 | SSTDIPSYTHVLISKLS [RRI1] | 2.13 ± 0.045 | 2.42 ± 0.048 | 2.42 ± 0.049 | 2.35 ± 0.037
2 | SSVTSDSMKYTISSLFV [RPC82] | 1.93 ± 0.046 | 2.3 ± 0.043 | 2.14 ± 0.06 | 2.16 ± 0.042
3 | STANPNIKLLNNRMGSY [POP1] | 3.01 ± 0.086 | 3.16 ± 0.083 | 2.56 ± 0.088 | 3.04 ± 0.052
4 | STIEKDMKEYDSDKGSK [SMC2] | 3.25 ± 0.1 | 3.44 ± 0.071 | 3.37 ± 0.056 | 3.44 ± 0.075
5 | STKIIMLLLNDSVENSS [SRB8] | 2.63 ± 0.074 | 2.15 ± 0.07 | 2.6 ± 0.077 | 2.74 ± 0.088
6 | STLMPGGVDVGPSVESY [SNF5] | 1.63 ± 0.083 | 1.87 ± 0.083 | 2 ± 0.16 | 2.68 ± 0.087
7 | STLSNWSSEFAKWAPTL [SNF2] | 2.9 ± 0.054 | 2.45 ± 0.06 | 2.85 ± 0.055 | 2.26 ± 0.047
8 | STMTEPVKQSFIRKYIN [GAL11] | 2.56 ± 0.082 | 2.2 ± 0.065 | 1.96 ± 0.092 | 2.47 ± 0.053
9 | STNSNSKPSTASPSAHT [RPN4] | 2.63 ± 0.055 | 3.01 ± 0.086 | 2.75 ± 0.061 | 2.82 ± 0.042
10 | STRLKKACKTADKLVNV [SRP68] | 3.38 ± 0.081 | 3.26 ± 0.073 | 2.98 ± 0.074 | 3.18 ± 0.052
11 | STSYHLNSTLESLYDLI [MED6] | 2.86 ± 0.12 | 2.62 ± 0.094 | 3 ± 0.084 | 2.51 ± 0.12
12 | SVARVEDHDVHSNESSN [IRR1] | 2.7 ± 0.059 | 2.99 ± 0.061 | 3.01 ± 0.052 | 2.81 ± 0.058
13 | SVEEVILERAYKKLDID [SNF2] | 3.23 ± 0.16 | 3.07 ± 0.24 | 2.95 ± 0.13 | 
14 | SVFGFRTQFGGGKSVGF [RPS24A] | 2.56 ± 0.13 | 2.23 ± 0.076 | 3.31 ± 0.076 | 2.77 ± 0.088
15 | SVFKGGMQNLIKKKKKK [SRP14] | 2 ± 0.18 | 3.05 ± 0.3 |  | 
16 | SVIPEVDREAMLKPNII [YCG1] | 3.06 ± 0.12 | 3.31 ± 0.14 | 3.08 ± 0.14 | 3.05 ± 0.12
17 | SVRLQRFYQLGVDLKLK [CSN12] | 3.2 ± 0.21 | 3.13 ± 0.23 | 3.01 ± 0.24 | 3.06 ± 0.12
18 | SVRSLQKRIENGGNSVI [SRP68] | 1.7 ± 0.085 | 1.82 ± 0.064 | 2.29 ± 0.096 | 1.85 ± 0.1
19 | SVTAQVYKIALRLTEQK [RPC82] | 1.79 ± 0.15 | 2.19 ± 0.14 | 2.22 ± 0.19 | 
20 | SVTVSQGNYVTEDIREG [YMR129W/POM152] | 2.82 ± 0.061 | 2.91 ± 0.064 | 2.87 ± 0.061 | 2.85 ± 0.05
21 | SVYGLDDISRQVARTNL [ROX3] | 2.06 ± 0.058 | 2.7 ± 0.059 | 1.96 ± 0.1 | 2.94 ± 0.046
22 | SWNLTGTILSSAGDDGK [YGL100W/SEH1] | 1.37 ± 0.062 | 1.88 ± 0.068 | 3.03 ± 0.077 | 2.98 ± 0.084
23 | SWYLNTFDGIRMSSEEV [GRR1] | 2.73 ± 0.061 | 2.1 ± 0.059 | 2.13 ± 0.066 | 2.27 ± 0.043
24 | SYDFLPLSNIKALLFFN [RPN12] | 2.14 ± 0.047 | 1.96 ± 0.048 | 1.42 ± 0.08 | 1.82 ± 0.044
25 | SYELIKEECQIEDDGII [CSN9] | 2.77 ± 0.11 | 3.01 ± 0.088 | 3.06 ± 0.069 | 3.1 ± 0.054
26 | SYLETLTALGKEKEKER [MED2] | 2.57 ± 0.16 | 1.93 ± 0.12 | 2.34 ± 0.17 | 2.92 ± 0.057
27 | SYQKAWDLLQSGSQNIS [RPN12] | 1.18 ± 0.096 | 1.11 ± 0.084 | 1.2 ± 0.13 | 1.08 ± 0.14
